This experiment has as its target recombinant human PCSK9, V5-, His-tagged (human, UniProt Q8NBP7 31-692). The experiment is described as follows: cell-based or functional assay.

Sequence of recombinant human PCSK9, V5-, His-tagged (Q8NBP7 31-692 limits assumed): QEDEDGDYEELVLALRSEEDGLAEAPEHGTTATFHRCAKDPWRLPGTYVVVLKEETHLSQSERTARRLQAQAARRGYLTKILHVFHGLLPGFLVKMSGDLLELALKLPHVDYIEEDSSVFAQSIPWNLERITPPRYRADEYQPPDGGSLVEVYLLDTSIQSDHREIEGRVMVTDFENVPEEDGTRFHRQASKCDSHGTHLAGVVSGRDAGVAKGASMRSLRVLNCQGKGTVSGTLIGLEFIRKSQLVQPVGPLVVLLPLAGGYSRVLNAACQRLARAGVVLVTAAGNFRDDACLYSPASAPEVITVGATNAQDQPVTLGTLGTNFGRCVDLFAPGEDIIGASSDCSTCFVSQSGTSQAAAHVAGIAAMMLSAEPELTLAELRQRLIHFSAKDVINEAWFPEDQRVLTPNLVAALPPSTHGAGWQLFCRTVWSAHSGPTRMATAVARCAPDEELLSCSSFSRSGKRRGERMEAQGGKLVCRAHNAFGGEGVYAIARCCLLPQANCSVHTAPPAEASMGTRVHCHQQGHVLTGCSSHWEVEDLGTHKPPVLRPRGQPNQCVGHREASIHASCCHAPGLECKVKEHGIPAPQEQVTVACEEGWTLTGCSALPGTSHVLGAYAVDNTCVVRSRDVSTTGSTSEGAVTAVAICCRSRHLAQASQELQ

B1: 3CX3D02 (Fab, V domains shown)
VH: QVQLVQSGAEVKKPGESLKISCKGSGYSFTNSWIGWVRQMPGKGLEWMGIIYPSDSYTIYSPSFQGQVTISADKSISTAYLQWSSLKASDTAMYYCARGGGYYYALMDVWAQGTLVTVSS
VL: DIQMTQSPSSLSASVGDRVTITCRASQTISTWLNWYQQKPGKAPKLLIYAASSLQSGVPSRFSGSGSGTDFTLTISSLQPEDFATYYCLQDSSLPLTFGQGTKVEIKR
Take B1: the “IC50, Exopolar assay: reversal of PCSK9-dependent loss of cellular diI-LDL uptake, Fab titrated against fixed PCSK9 (25 µg/ml)” value came out at 269 nM.

The values are drawn from patent publication US20130189278A1 (Merck Sharp & Dohme, published 2013).
